Positions count from the first letter of the chain named.

As usually defined, the Kd is the free concentration of one partner at which half of the binding sites on the other are occupied at equilibrium, for simple one-to-one binding. Broadly, the koff is the first-order rate constant of dissociation. Usually kon stands for the second-order rate constant of association.

For assay [1], the target named is T1, Human c-Met-Flis-Fc ECD (human).
T1 construct: also called human c-Met extracellular domain (ECD)-Fc-Flis fusion; Human cMet-ECD-Fc-Flis
The assay can be described thus: ELISA, coated ECD-Fc, antibody 0.060 ng/mL. The procedure:
(§1) Wells of 96-well EIA/RIA high binding plates (Costar, #2592) are coated with 100 μL of 1 μg/mL human c-Met extracellular domain (ECD)-Fc-Flis fusion (SEQ ID NO:72), RON-ECD-Fc (R&D Systems, #1947-MS), or PlexinA2-ECD-Fc (Abnova, Taipei, Taiwan #H00005362-P01) in coating buffer (BioFX Labs, # COAT-1000-01) overnight at 4° C. […] After the plates are washed, 100 μL/well of substrate solution (BioFx, #TMBW-1000-01) are added and the plates are incubated for 10 min. at room temperature. 100 μL/well of stop solution (BioFx, # LSTP-1000-01) are added to stop the reaction. The colorimetric signals are developed and read at 450 nm using a SpectraMax 190 plate reader (Molecular Devices, Sunnyvale, Calif.). c-Met antibody binding to c-Met, RON and PlexinA2 ECDs is proportional to color signal production.
(In general: In an ELISA, binding on a coated surface is turned into a signal by an enzyme label.)

The target in assay [2] is T1, Human c-Met-Flis-Fc ECD. The assay can be described thus: ELISA, coated ECD-Fc, antibody 77.160 ng/mL. Here is the method: as §1
In assay [3] the target is T1, Human c-Met-Flis-Fc ECD. The assay can be described thus: ELISA, coated ECD-Fc, antibody 0.010 ng/mL. Here is the method: as §1
For assay [4], the target named is T1, Human c-Met-Flis-Fc ECD. Description: ELISA, coated ECD-Fc, antibody 12.860 ng/mL. The procedure: as §1
Assay [5] addresses T1, Human c-Met-Flis-Fc ECD. The assay can be described thus: ELISA, coated ECD-Fc, antibody 0.357 ng/mL. The procedure:
as §1

Assay [6] concerns the target T1, Human c-Met-Flis-Fc ECD. Description: ELISA, coated ECD-Fc, antibody 0.000 ng/mL. The procedure:
as §1

The target in assay [7] is T2, mouse c-Met ECD (mouse, UniProt P16056 25-931).
T2 construct: extracellular domain
Description: ELISA, coated ECD (data not shown).

Assay [8] has as its target T1, Human c-Met-Flis-Fc ECD. Description: ELISA, coated ECD-Fc, antibody 462.963 ng/mL. The procedure:
as §1

In assay [9] the target is T1, Human c-Met-Flis-Fc ECD. Description: ELISA, coated ECD-Fc, antibody 100000.000 ng/mL. Here is the method:
as §1

Assay [10] has as its target T3, Cynomolgus Monkey c-Met-Flis-Fc ECD (cynomolgus monkey).
T3 construct: also called Cynomolgus Monkey cMet-ECD-Fc-Flis; cynomolgus monkey c-Met ECD
Description: SPR Biacore, antibody captured, ECD-Fc analyte, 1:1 model. Here is the method: (§2) A Biacore® 2000 instrument is used to measure the binding kinetics of c-Met antibodies to human, cynomolgus monkey, and rat c-Met ECDs. Measurements are performed at 25° C. Samples are dissolved in HBS-EP buffer (150 mM sodium chloride, 3 mM EDTA, 0.005% (w/v) surfactant P-20, and 10 mM N-2-hydroxyethylpiperazine-N′-2-ethanesulfonic acid (HEPES) at pH 7.4; #BR-1001-88).
(§3) Binding is evaluated using multiple cycles. Each cycle is performed at a flow rate of 50 μL/min., and consists of the following steps: injection of about 10 μL of a c-Met antibody at 10 μg/mL aiming at a capture of 40-100 RUs, injection of 250 μL of human, cynomolgus, or rat c-Met-Flis-Fc ECD (starting at 100 nM and using two-fold serial dilutions for each cycle) followed by 20 min. for dissociation, and regeneration using about 30 μL of 10 mM glycine hydrochloride, pH 1.5. Association and dissociation rates for each cycle are evaluated using a “1:1 (Langmuir) binding” model in the BIAevaluation software, version 4.1.

The target of assay [11] is T1, Human c-Met-Flis-Fc ECD. The description is as above. The procedure: as §2, §3
Assay [12] deals with T4, Rat c-Met-Flis-Fc ECD (rat).
T4 construct: also called Rat cMet-ECD-Fc-Flis; rat c-Met ECD
Description: SPR (Biacore), antibody captured. The procedure: as §2, §3

The target of assay [13] is T1, Human c-Met-Flis-Fc ECD. Description: ELISA, coated ECD-Fc, antibody 0.002 ng/mL. The procedure: as §1
In assay [14] the target is T1, Human c-Met-Flis-Fc ECD. Description: ELISA, coated ECD-Fc, antibody 16666.667 ng/mL. The procedure:
as §1

Assay [15] concerns the target T1, Human c-Met-Flis-Fc ECD. The assay can be described thus: ELISA, coated ECD-Fc, antibody 2777.778 ng/mL. Here is the method:
as §1

The target of assay [16] is T1, Human c-Met-Flis-Fc ECD. Description: ELISA, coated ECD-Fc, antibody 2.143 ng/mL. The procedure:
as §1

In assay [17] the target is T4, Rat c-Met-Flis-Fc ECD. The assay can be described thus: SPR Biacore, antibody captured, heterogeneous ligand model, second affinity. Here is the method:
as §2
(§4) Binding is evaluated using multiple cycles. Each cycle is performed at a flow rate of 50 μL/min., and consists of the following steps: injection of about 10 μL of a c-Met antibody at 10 μg/mL aiming at a capture of 40-100 RUs, injection of 250 μL of human, cynomolgus, or rat c-Met-Flis-Fc ECD (starting at 100 nM and using two-fold serial dilutions for each cycle) followed by 20 min. for dissociation, and regeneration using about 30 μL of 10 mM glycine hydrochloride, pH 1.5. […]

Assay [18] addresses T4, Rat c-Met-Flis-Fc ECD. Description: SPR Biacore, antibody captured, heterogeneous ligand model, first affinity. Here is the method: as §2, §4
A general note: In SPR one partner is held on a chip, and binding of the other changes the refractive index at the surface.

T1 sequence (chain, as listed by the source limits assumed): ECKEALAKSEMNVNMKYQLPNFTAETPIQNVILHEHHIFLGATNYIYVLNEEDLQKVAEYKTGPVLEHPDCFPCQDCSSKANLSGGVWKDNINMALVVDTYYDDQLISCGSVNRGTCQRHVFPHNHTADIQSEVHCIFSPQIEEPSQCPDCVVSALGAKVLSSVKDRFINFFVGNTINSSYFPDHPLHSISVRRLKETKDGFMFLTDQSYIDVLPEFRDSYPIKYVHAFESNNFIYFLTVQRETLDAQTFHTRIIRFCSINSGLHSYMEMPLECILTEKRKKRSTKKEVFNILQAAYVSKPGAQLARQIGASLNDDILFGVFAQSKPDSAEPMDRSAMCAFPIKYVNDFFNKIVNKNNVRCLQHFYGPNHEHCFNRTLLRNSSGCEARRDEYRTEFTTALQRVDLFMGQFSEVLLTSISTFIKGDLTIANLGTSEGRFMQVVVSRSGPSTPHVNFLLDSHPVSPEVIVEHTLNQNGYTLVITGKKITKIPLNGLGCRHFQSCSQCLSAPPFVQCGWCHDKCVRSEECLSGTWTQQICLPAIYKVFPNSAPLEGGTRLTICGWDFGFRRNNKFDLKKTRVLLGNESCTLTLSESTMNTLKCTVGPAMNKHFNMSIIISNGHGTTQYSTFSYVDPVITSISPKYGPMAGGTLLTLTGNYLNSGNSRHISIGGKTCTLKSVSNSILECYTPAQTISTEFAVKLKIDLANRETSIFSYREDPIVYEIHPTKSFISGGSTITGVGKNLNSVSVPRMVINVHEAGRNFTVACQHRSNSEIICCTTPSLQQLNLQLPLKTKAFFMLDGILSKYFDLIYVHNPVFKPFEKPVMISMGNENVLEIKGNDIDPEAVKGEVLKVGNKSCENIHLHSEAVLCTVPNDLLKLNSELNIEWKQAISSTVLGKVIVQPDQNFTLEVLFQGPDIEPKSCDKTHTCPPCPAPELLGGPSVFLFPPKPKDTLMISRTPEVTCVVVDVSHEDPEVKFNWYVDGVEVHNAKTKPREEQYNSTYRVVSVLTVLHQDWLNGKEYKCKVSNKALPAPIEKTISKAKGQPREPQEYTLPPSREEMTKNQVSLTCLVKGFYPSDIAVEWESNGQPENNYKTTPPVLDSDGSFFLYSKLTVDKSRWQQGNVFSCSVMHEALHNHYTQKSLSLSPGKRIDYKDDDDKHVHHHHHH
T4 sequence (chain, as listed by the source limits assumed): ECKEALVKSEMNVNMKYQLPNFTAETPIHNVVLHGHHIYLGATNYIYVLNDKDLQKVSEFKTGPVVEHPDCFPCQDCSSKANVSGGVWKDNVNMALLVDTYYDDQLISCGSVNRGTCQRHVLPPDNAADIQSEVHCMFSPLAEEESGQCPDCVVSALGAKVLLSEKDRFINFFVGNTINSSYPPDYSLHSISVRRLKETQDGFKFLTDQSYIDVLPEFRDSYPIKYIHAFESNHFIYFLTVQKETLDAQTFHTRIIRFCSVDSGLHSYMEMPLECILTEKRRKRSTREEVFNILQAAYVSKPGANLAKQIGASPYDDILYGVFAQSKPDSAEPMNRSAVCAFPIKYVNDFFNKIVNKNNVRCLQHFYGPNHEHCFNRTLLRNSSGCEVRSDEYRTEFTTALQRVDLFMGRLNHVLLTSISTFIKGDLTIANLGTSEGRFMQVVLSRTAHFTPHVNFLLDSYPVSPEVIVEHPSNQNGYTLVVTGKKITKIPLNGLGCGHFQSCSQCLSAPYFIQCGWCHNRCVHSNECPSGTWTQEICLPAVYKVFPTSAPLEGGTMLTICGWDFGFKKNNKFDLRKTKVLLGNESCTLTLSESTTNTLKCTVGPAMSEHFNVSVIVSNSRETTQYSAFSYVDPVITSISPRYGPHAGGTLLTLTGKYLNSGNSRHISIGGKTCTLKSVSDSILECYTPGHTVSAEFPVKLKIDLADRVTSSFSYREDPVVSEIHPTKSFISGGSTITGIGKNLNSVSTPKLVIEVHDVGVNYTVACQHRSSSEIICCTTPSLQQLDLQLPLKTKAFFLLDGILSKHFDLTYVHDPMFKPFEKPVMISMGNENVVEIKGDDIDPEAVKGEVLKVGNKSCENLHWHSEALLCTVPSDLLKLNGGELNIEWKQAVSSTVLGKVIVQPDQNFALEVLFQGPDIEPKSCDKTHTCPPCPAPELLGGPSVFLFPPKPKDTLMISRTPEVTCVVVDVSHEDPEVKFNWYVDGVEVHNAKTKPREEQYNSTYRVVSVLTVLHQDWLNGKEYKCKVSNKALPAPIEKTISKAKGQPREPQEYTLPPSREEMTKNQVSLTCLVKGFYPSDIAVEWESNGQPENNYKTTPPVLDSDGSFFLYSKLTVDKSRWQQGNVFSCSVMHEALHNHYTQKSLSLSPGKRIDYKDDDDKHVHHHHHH
T3 sequence (chain, as listed by the source limits assumed): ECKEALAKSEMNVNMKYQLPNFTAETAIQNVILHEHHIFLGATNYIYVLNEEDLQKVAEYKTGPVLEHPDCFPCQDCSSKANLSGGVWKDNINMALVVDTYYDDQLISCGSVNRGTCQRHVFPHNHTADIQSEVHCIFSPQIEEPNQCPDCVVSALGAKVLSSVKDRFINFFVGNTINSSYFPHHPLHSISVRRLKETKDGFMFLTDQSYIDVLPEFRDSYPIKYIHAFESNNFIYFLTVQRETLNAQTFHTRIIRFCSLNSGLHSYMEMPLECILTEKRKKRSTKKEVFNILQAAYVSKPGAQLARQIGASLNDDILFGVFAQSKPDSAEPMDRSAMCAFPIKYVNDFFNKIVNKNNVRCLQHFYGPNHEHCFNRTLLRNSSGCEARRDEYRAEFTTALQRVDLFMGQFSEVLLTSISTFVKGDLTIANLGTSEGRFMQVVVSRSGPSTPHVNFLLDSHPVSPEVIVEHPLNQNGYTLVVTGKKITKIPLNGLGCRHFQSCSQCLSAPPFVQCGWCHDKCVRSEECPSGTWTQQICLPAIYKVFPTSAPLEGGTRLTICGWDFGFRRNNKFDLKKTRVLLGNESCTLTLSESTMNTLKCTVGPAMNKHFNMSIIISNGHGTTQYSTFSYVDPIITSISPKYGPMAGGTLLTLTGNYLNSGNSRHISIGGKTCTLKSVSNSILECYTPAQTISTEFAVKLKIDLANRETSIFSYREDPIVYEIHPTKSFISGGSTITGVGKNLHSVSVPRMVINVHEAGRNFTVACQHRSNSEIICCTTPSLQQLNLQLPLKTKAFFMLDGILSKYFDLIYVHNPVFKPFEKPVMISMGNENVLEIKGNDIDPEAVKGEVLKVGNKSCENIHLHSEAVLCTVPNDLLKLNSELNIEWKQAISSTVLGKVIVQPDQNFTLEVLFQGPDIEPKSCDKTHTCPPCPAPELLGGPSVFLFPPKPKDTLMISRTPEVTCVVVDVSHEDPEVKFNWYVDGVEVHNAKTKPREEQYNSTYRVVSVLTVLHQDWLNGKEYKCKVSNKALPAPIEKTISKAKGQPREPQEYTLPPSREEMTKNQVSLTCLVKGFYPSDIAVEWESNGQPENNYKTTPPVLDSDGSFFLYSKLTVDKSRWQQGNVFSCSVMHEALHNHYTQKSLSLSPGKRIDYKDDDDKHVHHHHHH
T2 sequence (P16056 25-931): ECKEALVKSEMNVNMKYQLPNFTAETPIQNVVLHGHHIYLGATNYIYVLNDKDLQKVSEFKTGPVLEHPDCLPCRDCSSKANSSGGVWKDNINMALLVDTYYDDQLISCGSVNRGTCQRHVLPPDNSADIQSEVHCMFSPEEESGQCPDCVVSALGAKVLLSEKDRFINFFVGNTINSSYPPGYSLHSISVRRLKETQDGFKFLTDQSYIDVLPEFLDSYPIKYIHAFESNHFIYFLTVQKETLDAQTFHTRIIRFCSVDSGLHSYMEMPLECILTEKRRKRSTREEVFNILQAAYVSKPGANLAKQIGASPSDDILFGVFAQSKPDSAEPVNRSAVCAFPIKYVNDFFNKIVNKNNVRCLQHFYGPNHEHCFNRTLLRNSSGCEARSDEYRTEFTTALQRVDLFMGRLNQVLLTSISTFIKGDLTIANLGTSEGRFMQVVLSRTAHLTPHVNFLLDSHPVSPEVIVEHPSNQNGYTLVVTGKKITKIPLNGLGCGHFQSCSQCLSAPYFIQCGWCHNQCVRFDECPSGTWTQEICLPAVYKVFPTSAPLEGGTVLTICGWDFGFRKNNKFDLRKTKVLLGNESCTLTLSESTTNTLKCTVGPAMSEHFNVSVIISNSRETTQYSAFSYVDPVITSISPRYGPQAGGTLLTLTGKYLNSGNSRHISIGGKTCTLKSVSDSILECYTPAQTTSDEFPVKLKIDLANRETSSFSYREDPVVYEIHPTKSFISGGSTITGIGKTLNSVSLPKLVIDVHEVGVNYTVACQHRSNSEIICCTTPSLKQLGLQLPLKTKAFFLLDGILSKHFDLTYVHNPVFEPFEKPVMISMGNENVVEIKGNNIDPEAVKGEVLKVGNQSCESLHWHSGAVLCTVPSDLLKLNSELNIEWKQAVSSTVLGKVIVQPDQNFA

B1: C8-H241 (antibody, human IgG2, kappa, V domains shown)
VH: QVQLVQSGAEVKKPGASVKVSCKASGYTFTDYYMHWVRQAPGQGLEWMGRVNPNRRGTTYNQKFEGRVTMTTDTSTSTAYMELRSLRSDDTAVYYCARANWLDYWGQGTTVTVSS
VL: DIQMTQSPSSLSASVGDRVTITCSVSSSVSSIYLHWYQQKPGKAPKLLIYSTSNLASGVPSRFSGSGSGTDFTLTISSLQPEDFATYYCQVYSGYPLTFGGGTKVEIKR
notes: Called IgG4, kappa; also called Mab C8-H241
Consider B1, for which the “Average A450 nm” value in assay [1] is 0.484 A450 nm; in assay [2], 4 A450 nm; in assay [3], 0.317 A450 nm; in assay [4], 4 A450 nm; in assay [5], 0.902 A450 nm; in assay [6] it was 0.3 A450 nm. Further, the “Average A450 nm” value in [8] worked out at 4 A450 nm; in [9], 4 A450 nm; in [13], 0.317 A450 nm; in [14] it was 4 A450 nm; in assay [15] it was 4 A450 nm; in assay [16], 2.86 A450 nm. For the same molecule, the binding result in assay [7] is given as “no binding (tested: 100 nM)”; in assay [12], “no binding”. For the same molecule, the Kd was < 0.2 nM in assay [10] and < 0.1 nM in [11].

B2: C8-co-16 (antibody, human IgG2, kappa, V domains shown)
VH: B1 VH with N54Y, R56G, G57S, W101I
VL: B1 VL with S30R, S93R
notes: Called IgG4, kappa
Regarding B2, the “Average A450 nm” value is 0.446 A450 nm in [1]; 4 A450 nm in assay [2]; 0.374 A450 nm in assay [3]; 4 A450 nm in assay [4]; 0.907 A450 nm in [5]; 0.335 A450 nm in [6]. The “Average A450 nm” value was 4 A450 nm in assay [8]; 4 A450 nm in [9]; 0.369 A450 nm in assay [13]; 4 A450 nm in assay [14]; 4 A450 nm in [15]; 2.89 A450 nm in assay [16]. Besides, the values for the binding result in assay [7] and in assay [12] were “no binding (tested: 100 nM)” and “no binding”, respectively. The dissociation constant (Kd) was < 0.1 nM in assay [10] and 0.3 nM in assay [11]. For the same molecule, the koff in assay [10] was < 1e-05 s⁻¹; in assay [11], 3e-05 s⁻¹. Further, the kon in [10] was 103000 M⁻¹ s⁻¹; in assay [11], 110000 M⁻¹ s⁻¹.

B3: D11-S17Y (antibody, human IgG2, kappa, V domains shown)
VH: QVQLVQSGAEVKKPGSSVKVSCKASGYTFTSRYIHWVRQAPGQGLEWMGWIYPVTGDTYYNEKFKGRVTITADKSTSTAYMELSSLRSEDTAVYYCARGYGAFYYWGQGTLVTVSS
VL: EIVLTQSPGTLSLSPGERATLSCSVSSSISSTNLHWYQQKPGQAPRLLIYGTSYLASGIPDRFSGSGSGTDFTLTISRLEPEDFAVYYCQQWSSYPYSFGQGTKLEIKR
notes: Human engineered IgG2, kappa
Turning to B3, the Kd in assay [17] worked out at 1.2 nM; in assay [18], 286 nM; in assay [10] it was 5.1 nM; in [11] it was 4.2 nM. In addition, the koff in [17] is 0.0003 s⁻¹; in assay [18], 0.0189 s⁻¹; in [10], 0.00036 s⁻¹; in [11] it was 0.00028 s⁻¹. The on-rate constant (kon) in [17] worked out at 250000 M⁻¹ s⁻¹; in [18], 66000 M⁻¹ s⁻¹; in [10], 70000 M⁻¹ s⁻¹; in assay [11], 70000 M⁻¹ s⁻¹. Further, the “Average A450 nm” value stood at 0.374 A450 nm in assay [1]; 4 A450 nm in assay [2]; 0.314 A450 nm in [3]; 4 A450 nm in [4]; 0.789 A450 nm in assay [5]; 0.315 A450 nm in assay [6]. For the same molecule, the “Average A450 nm” value in [8] amounted to 4 A450 nm; in [9], 4 A450 nm; in [13], 0.309 A450 nm; in assay [14], 4 A450 nm; in [15], 4 A450 nm; in assay [16], 2.14 A450 nm.

Source of the values: patent US20100129369A1 (Eli Lilly, published 2010).
